The values that follow come from paper PMC5818423.

To fix the notation:
B1: Human wild-type adenosine deaminase (ADA) [human] / A2AR-Nluc-spacer (human adenosine receptor fused to NanoLuc on the N-terminal end, with spacer) [human] (parent)
chain 1: MAQTPAFDKPKVELHVHLDGSIKPETILYYGRRRGIALPANTAEGLLNVIGMDKPLTLPDFLAKFDYYMPAIAGCREAIKRIAYEFVEMKAKEGVVYVEVRYSPHLLANSKVEPIPWNQAEGDLTPDEVVALVGQGLQEGERDFGVKARSILCCMRHQPNWSPKVVELCKKYQQQTVVAIDLAGDETIPGSSLLPGHVQAYQEAVKSGIHRTVHAGEVGSAEVVKEAVDILKTERLGHGYHTLEDQALYNRLRQENMHFEICPWSSYLTGAWKPDTEHAVIRLKNDQANYSLNTDDPLIFKSTLDTDYQMTKRDMGFTEEEFKRLNINAAKSSFLPEDEKRELLDLLYKAYGMPPSASAGQNL
chain 2: MPIMGSSVYITVELAIAVLAILGNVLVCWAVWLNSNLQNVTNYFVVSLAAADIAVGVLAIPFAITISTGFCAACHGCLFIACFVLVLTQSSIFSLLAIAIDRYIAIRIPLRYNGLVTGTRAKGIIAICWVLSFAIGLTPMLGWNNCGQPKEGKNHSQGCGEGQVACLFEDVVPMNYMVYFNFFACVLVPLLLMLGVYLRIFLAARRQLKQMESQPLPGERARSTLQKEVHAAKSLAIIVGLFALCWLPLHIINCFTFFCPDCSHAPLWLMYLAIVLSHTNSVVNPFIYAYRIREFRQTFRKIIRSHVLRQQEPFKAAGTSARVLAAHGSDGEQVSLRLNGHPPGVWANGSAPHPERRPNGYALGLVSGGSAQESQGNTGLPDVELLSHELKGVCPEPPGLDDPLAQDGAGVS

This experiment covers variants of B1. In words: NanoBRET between mixed cells (A2AR-Nluc-spacer cells + CD26-YFP cells bridged by ADA). Conditions: ADA at 1 μg/ml, 10 min incubation in HBSS without shaking, HEK-293T cells, untreated (0) control est. 4.6 mBU, parent: 35, read off a plot. On the technique in general: BRET reads energy transfer from a luciferase to a nearby fluorophore.
Take chain 1 L58A: the response worked out at 7.3 mBU.
Regarding chain 1 L62A, the response turned out to be 6.7 mBU.
